This is an account of results in article PMC12747267 (bioRxiv, 2025).

The data set deals with the molecule itself. Nature of the data set: cryo-EM structure.

B1: human myosin regulatory light chain (RLC, MYL12B) (natural protein, UniProt O14950 1-172, looked up)
chain: MSSKKAKTKTTKKRPQRATSNVFAMFDQSQIQEFKEAFNMIDQNRDGFIDKEDLHDMLASLGKNPTDAYLDAMMNEAPGPINFTMFLTMFGEKLNGTDPEDVIRNAFACFDEEATGTIQEDYLRELLTTMGDRFTDEEVDELYREAPIDKKGNFNYIEFTRILKHGAKDKDD
Take B1: the binding result is listed as “binds”.
